Assay results as given in US20250236642A1 (NEC, published 2025).

Experiments:
HLA-A*24:02 molecule = target: T1, HLA-A*24:02 molecule; assay: flow cytometry, C1R-A24 cells;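 also: Read-out was the amount of peptide–MHC complex on each cell, taken as the fluorescence intensity of a bound fluorescent antibody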
T1 construct: MHC class I molecule on C1R-A24 cells, endogenous peptide and b2m stripped at pH 3.3, purified b2m added back; also called product of an HLA-A*24:02 gene; allele A*24:02
Excerpt: Thereafter, the number of MHC-peps for each C1R-A24 cell (proportional to a fluorescence intensity of the fluorescent antibody) was quantitatively measured using a fluorescence cell analyzer FACScan (Becton-Dickinson).

HLA-A*02:01 molecule = target: T2, HLA-A*02:01 molecule; assay: flow cytometry, T2 cells
T2 construct: MHC class I molecule on T2 cells (ATCC); also called product of an HLA-A*02:01 gene; allele A*02:01

Binder	log10 Kd (M) (HLA-A*24:02 molecule)	log Kd (HLA-A*02:01 molecule)
ISAYRTCWI (synthetic 9-mer derived from Casp-8) [peptide of SEQ ID NO: 34]	-5	–
AQAPPTAQL (synthetic 9-mer derived from c-Myb) [peptide of SEQ ID NO: 5]	-5.75	-6.02
ATAPPTAQL (synthetic 9-mer derived from c-Myb) [peptide of SEQ ID NO: 25]	-4.54	-5
ALAPPTAQL (synthetic 9-mer derived from c-Myb) [peptide of SEQ ID NO: 6]	-5.33	-6.58
ATLAPAVLL (synthetic 9-mer derived from EVC1) [peptide of SEQ ID NO: 10]	-5.2	-5.56
AVLAPAVLL (synthetic 9-mer derived from EVC1) [peptide of SEQ ID NO: 27]	4.81	-5.15
EAIDGYITL (synthetic 9-mer; also called H1) [peptide of SEQ ID NO: 47]	-5.54	–
GRVMQIDGV (synthetic 9-mer derived from Wnt5a) [peptide of SEQ ID NO: 68]	-4.63	–
FIDSDSSSW (synthetic 9-mer derived from c-Myb) [peptide of SEQ ID NO: 57]	-4.7	–
HMTSSERPF (synthetic 9-mer derived from Helios) [peptide of SEQ ID NO: 64]	-4.16	–
THLDAGTVE (synthetic 9-mer derived from Casp-8) [peptide of SEQ ID NO: 75]	> -3	> -3
ILSDHQQSQ (synthetic 9-mer derived from Casp-8) [peptide of SEQ ID NO: 70]	> -3	> -3
LLLFSAAAL (synthetic 9-mer derived from CADM1) [peptide of SEQ ID NO: 1]	-4.96	-6.06
CDLSSFEFF (synthetic 9-mer derived from c-Myb) [peptide of SEQ ID NO: 58]	-4.1	–
SLPNEKQTS (synthetic 9-mer derived from Casp-8) [peptide of SEQ ID NO: 69]	> -3	> -3
LMEEHGATL (synthetic 9-mer derived from EVC2) [peptide of SEQ ID NO: 13]	-5.22	-4.92
LLEEHGATL (synthetic 9-mer derived from EVC2) [peptide of SEQ ID NO: 41]	–	-5.6
LTEEHGATL (synthetic 9-mer derived from EVC2) [peptide of SEQ ID NO: 42]	–	-4.09
LHEEHGATL (synthetic 9-mer derived from EVC2) [peptide of SEQ ID NO: 79]	> -3	> -3
LIEEHGATL (synthetic 9-mer derived from EVC2) [peptide of SEQ ID NO: 40]	–	-4.5

Binder	log10 Kd (M) (HLA-A*24:02 molecule)	log Kd (HLA-A*02:01 molecule)
LVEEHGATL (synthetic 9-mer derived from EVC2) [peptide of SEQ ID NO: 43]	–	-4.18
VFGRVMQID (synthetic 9-mer derived from Wnt5a; also called A15) [peptide of SEQ ID NO: 66]	-5.41	–
LLITRKSFI (synthetic 9-mer derived from Fas; also called A10) [peptide of SEQ ID NO: 16]	-6.64	-5.13
LAITRKSFI (synthetic 9-mer derived from Fas) [peptide of SEQ ID NO: 46]	-5.12	–
LIITRKSFI (synthetic 9-mer derived from Fas) [peptide of SEQ ID NO: 29]	-5.6	-4.11
LHITRKSFI (synthetic 9-mer derived from Fas) [peptide of SEQ ID NO: 63]	-4.76	–
LVITRKSFI (synthetic 9-mer derived from Fas) [peptide of SEQ ID NO: 30]	-5.46	-4.01
LTITRKSFI (synthetic 9-mer derived from Fas) [peptide of SEQ ID NO: 45]	-4.82	–
LMITRKSFI (synthetic 9-mer derived from Fas) [peptide of SEQ ID NO: 17]	-6.01	-5.2
ASPSHMTSM (synthetic 9-mer derived from Helios) [peptide of SEQ ID NO: 81]	> -3	> -3
AYRTCWIFS (synthetic 9-mer derived from Casp-8) [peptide of SEQ ID NO: 49]	-5.42	–
GYITCERPF (synthetic 9-mer derived from Helios) [peptide of SEQ ID NO: 65]	-6.52	–
CMIVHQGTI (synthetic 9-mer derived from c-Myb) [peptide of SEQ ID NO: 36]	-5.54	–
IFADVSSST (synthetic 9-mer derived from c-Myb) [peptide of SEQ ID NO: 78]	> -3	> -3
YVYDPPTTI (synthetic 9-mer derived from CADM1) [peptide of SEQ ID NO: 2]	-6.23	-6.16
YLYDPPTTI (synthetic 9-mer derived from CADM1) [peptide of SEQ ID NO: 4]	-6.16	-6.23
YTYDPPTTI (synthetic 9-mer derived from CADM1) [peptide of SEQ ID NO: 3]	-5.51	-5.47
STGESAQTS (synthetic 9-mer derived from Casp-8) [peptide of SEQ ID NO: 71]	> -3	> -3
SLLITRKSF (synthetic 9-mer derived from Fas) [peptide of SEQ ID NO: 62]	-5.84	–
GILSDHQQS (synthetic 9-mer derived from Casp-8) [peptide of SEQ ID NO: 74]	> -3	> -3

Binder	log10 Kd (M) (HLA-A*24:02 molecule)	log Kd (HLA-A*02:01 molecule)
CLDEHQWQL (synthetic 9-mer derived from EVC1) [peptide of SEQ ID NO: 9]	-5.87	-6.66
CIDEHQWQL (synthetic 9-mer derived from EVC1) [peptide of SEQ ID NO: 28]	-3.48	-4.85
CTDEHQWQL (synthetic 9-mer derived from EVC1) [peptide of SEQ ID NO: 39]	–	-5.04
SPDEFSNDF (synthetic 9-mer derived from Casp-8) [peptide of SEQ ID NO: 73]	> -3	> -3
SSFEFFEEA (synthetic 9-mer derived from c-Myb) [peptide of SEQ ID NO: 37]	–	-6.49
ARHSTIPLV (synthetic 9-mer derived from c-Myb) [peptide of SEQ ID NO: 77]	> -3	> -3
SLPFSPSQF (synthetic 9-mer derived from c-Myb) [peptide of SEQ ID NO: 56]	-7	–
GSPDEFSND (synthetic 9-mer derived from Casp-8) [peptide of SEQ ID NO: 72]	> -3	> -3
LPFSPSQFL (synthetic 9-mer derived from c-Myb) [peptide of SEQ ID NO: 60]	-3.35	–
LPPARHSTI (synthetic 9-mer derived from c-Myb) [peptide of SEQ ID NO: 76]	> -3	> -3
FSNDFGQSL (synthetic 9-mer derived from Casp-8) [peptide of SEQ ID NO: 35]	–	-3.9
HMAKVIEFL (synthetic 9-mer derived from EVC1) [peptide of SEQ ID NO: 38]	-6.03	-5.69
KFLEAFHEV (synthetic 9-mer derived from EVC1) [peptide of SEQ ID NO: 8]	-6.88	-5.93
TVLVPPRNL (synthetic 9-mer derived from CADM1) [peptide of SEQ ID NO: 48]	-8.27	–
GYITLGKPH (synthetic 9-mer derived from Helios) [peptide of SEQ ID NO: 80]	> -3	> -3
YFFTVIFSF (synthetic 9-mer derived from Fas) [peptide of SEQ ID NO: 44]	-6.77	–
ALPKIRARV (synthetic 9-mer derived from EVC2) [peptide of SEQ ID NO: 12]	-6.18	-5.66
SSLDPPKVL (synthetic 9-mer derived from c-Myb) [peptide of SEQ ID NO: 55]	-5.35	–
ATGDCSSFI (synthetic 9-mer derived from c-Myb) [peptide of SEQ ID NO: 59]	–	-4.08
VLPPARHST (synthetic 9-mer derived from c-Myb) [peptide of SEQ ID NO: 54]	–	-5.11
